According to IntAct's records for PubMed 22396535:

B1: Paired immunoglobulin-like type 2 receptor alpha (Homo sapiens), Q9UKJ1 (parent)
chain: MGRPLLLPLLPLLLPPAFLQPSGSTGSGPSYLYGVTQPKHLSASMGGSVEIPFSFYYPWELATAPDVRISWRRGHFHRQSFYSTRPPSIHKDYVNRLFLNWTEGQKSGFLRISNLQKQDQSVYFCRVELDTRSSGRQQWQSIEGTKLSITQAVTTTTQRPSSMTTTWRLSSTTTTTGLRVTQGKRRSDSWHISLETAVGVAVAVTVLGIMILGLICLLRWRRRKGQQRTKATTPAREPFQNTEEPYENIRNEGQNTDPKLNPKDDGIVYASLALSSSTSPRAPPSHRPLKSPQNETLYSVLKA
partner: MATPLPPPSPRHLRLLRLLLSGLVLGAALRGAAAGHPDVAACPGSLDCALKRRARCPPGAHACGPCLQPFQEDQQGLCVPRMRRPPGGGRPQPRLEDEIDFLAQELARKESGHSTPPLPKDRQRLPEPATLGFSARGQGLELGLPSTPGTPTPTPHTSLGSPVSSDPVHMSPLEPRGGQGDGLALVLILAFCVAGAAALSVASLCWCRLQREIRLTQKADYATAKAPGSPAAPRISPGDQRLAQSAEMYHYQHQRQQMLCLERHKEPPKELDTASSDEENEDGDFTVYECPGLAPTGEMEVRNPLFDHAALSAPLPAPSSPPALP
B2: Paired immunoglobulin-like type 2 receptor alpha (Homo sapiens), Q9UKJ1 (parent)
chain: B1 chain
partner: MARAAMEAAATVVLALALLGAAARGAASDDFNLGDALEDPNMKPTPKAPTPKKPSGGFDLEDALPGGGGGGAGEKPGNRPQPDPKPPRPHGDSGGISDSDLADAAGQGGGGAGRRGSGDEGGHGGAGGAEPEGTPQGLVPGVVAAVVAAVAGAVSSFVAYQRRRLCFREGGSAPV
B3: Paired immunoglobulin-like type 2 receptor alpha (Homo sapiens), Q9UKJ1 (parent)
chain: B1 chain

Variants of: B1
Conditions: with npdc1_human NPDC1, Q9NQX5

Variant	effect of a mutation on the interaction
R126A	disrupting interaction strength

Variants of: B2
Conditions: with cd99_mouse Cd99, Q8VCN6

Variant	effect of a mutation on the interaction
R126A	disrupting interaction strength

Variants of: B3
Conditions: with col12_human COLEC12, Q5KU26
Chain of col12_human COLEC12, Q5KU26 (Q5KU26 whole entry): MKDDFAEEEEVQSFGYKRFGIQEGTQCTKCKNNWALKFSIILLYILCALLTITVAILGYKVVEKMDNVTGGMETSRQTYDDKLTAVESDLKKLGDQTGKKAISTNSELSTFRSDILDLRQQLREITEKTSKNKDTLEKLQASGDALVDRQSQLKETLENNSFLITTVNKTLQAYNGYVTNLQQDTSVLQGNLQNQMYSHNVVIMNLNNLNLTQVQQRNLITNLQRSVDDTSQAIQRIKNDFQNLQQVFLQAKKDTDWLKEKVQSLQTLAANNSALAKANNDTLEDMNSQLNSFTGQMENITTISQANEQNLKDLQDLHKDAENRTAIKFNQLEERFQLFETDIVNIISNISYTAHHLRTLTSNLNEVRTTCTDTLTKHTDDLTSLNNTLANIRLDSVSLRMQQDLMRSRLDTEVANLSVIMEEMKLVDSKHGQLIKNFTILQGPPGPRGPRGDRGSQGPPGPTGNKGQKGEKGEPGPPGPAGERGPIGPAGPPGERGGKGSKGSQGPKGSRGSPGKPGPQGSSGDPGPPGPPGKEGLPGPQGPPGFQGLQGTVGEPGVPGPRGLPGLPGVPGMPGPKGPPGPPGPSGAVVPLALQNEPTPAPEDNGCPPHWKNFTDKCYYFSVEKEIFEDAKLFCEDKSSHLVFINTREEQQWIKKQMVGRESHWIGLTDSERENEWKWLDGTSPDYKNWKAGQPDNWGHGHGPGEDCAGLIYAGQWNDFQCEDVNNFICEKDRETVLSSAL

Variant	effect of a mutation on the interaction
R126A	disrupting interaction strength
